The values below come from patent publication US20100260668A1 (published 2010).

For test [1], the target named is T1, human DLL4 extracellular domain (human, UniProt Q9NR61 27-529, biotin label in the Notch-1 competition ELISA (sites not given)).
T1 construct: extracellular domain; also called biotin labeled human DLL4 extracellular domain
Description: competition ELISA: biotin-labelled human DLL4 ECD pre-mixed with DVD-Ig, then on coated human Notch-1 (competitor Notch-1).

The target of test [2] is T2, DLL4 (human, UniProt Q9NR61 27-685).
T2 construct: whole, on cells; also called human DLL4
Description: flow cytometry on cells carrying the target, 2 ug/mL; C-terminal VD. On the technique in general: Flow cytometry measures light scatter and fluorescence of single cells or particles in a stream.

A further test addresses T3, RON (UniProt Q04912 25-1400, limits assumed).
T3 construct: whole, on cells; also called macrophage stimulating protein receptor tyrosine kinase; MSP receptor
The description is as above.

Test [3] deals with T2, DLL4. Description: flow cytometry on 293G-human DLL4 cells; DLL4 VD N-terminal.
In test [4] the target is T4, VEGF (VEGF 1-165 aa, R&D Systems 293-VE-010) (UniProt P15692 27-191).
T4 construct: bought reagent; also called vascular endothelial growth factor
Description: Direct bind ELISA, VEGF coated on plate; VEGF domain N-term., HC long/LC long. (In general: An ELISA detects its analyte on a solid surface through an enzyme-linked reagent.)

The target in test [5] is T5, ErbB3 on A431 cells (human, UniProt P21860 20-1342). In words: cell-based or functional assay.
Test [6] concerns the target T6, EGFR on A431 cells (human, UniProt P00533 25-1210). In words: cell-based or functional assay.
For test [7], the target named is T5, ErbB3 on A431 cells. In words: cell-based or functional assay. This is another data set of the same source.
Test [8] deals with T6, EGFR on A431 cells. In words: cell-based or functional assay. This is another data set of the same source.

T4 sequence (P15692 other isoform, or with tags, fused parts or gaps limits assumed): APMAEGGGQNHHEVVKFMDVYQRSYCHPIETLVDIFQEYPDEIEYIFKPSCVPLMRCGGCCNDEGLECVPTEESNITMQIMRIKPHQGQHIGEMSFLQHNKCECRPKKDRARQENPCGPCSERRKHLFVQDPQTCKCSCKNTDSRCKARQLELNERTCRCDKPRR

B1: DVD258 (PLGF (seq. 1) N-terminal / DLL-4 (seq. 1) C-terminal DVD-Ig) (bispecific antibody, human IgG1, kappa)
heavy: not shown
light: DIVLTQSPDSLAVSLGERVTMNCKSSQSLLNSGMRKSFLAWYQQKPGQSPKLLIYWASTRESGVPDRFTGSGSGTDFTLTISSVQAEDVAVYYCKQSYHLFTFGSGTKLEIKRTVAAPDIQMTQSPSSLSASVGDRVTITCRASQDVSTAVAWYQQKPGKAPKLLIYSASFLYSGVPSRFSGSGSGTDFTLTISSLQPEDFATTYYCQQSYTGTVTFGQGTKVEIKRTVAAPSVFIFPPSDEQLKSGTASVVCLLNNFYPREAKVQWKVDNALQSGNSQESVTEQDSKDSTYSLSSTLTLSKADYEKHKVYACEVTHQGLSSPVTKSFNRGEC
notes: also called VD258H; VD258L
B1 came in with an IC50 in test [1] of 17.5 nM.

B2: DVD258 (bispecific antibody, human IgG1, kappa)
heavy: not shown
light: DIVLTQSPDSLAVSLGERVTMNCKSSQSLLNSGMRKSFLAWYQQKPGQSPKLLIYWASTRESGVPDRFTGSGSGTDFTLTISSVQAEDVAVYYCKQSYHLFTFGSGTKLEIKRTVAAPDIQMTQSPSSLSASVGDRVTITCRASQDVSTAVAWYQQKPGKAPKLLIYSASFLYSGVPSRFSGSGSGTDFTLTISSLQPEDFATTYYCQQSYTGTVTFGQGTKVEIKRTVAAPSVFIFPPSDEQLKSGTASVVCLLNNFYPREAKVQWKVDNALQSGNSQESVTEQDSKDSTYSLSSTLTLSKADYEKHKVYACEVTHQGLSSPVTKSFNRGEC
notes: DVD-Ig; outer AB047 (PlGF), inner AB015 (DLL4); also called PlGF and DLL4 DVD-Ig
Regarding B2, the “FACS Geometric Mean C-terminal” value with DLL4 [2] worked out at 5.57.

B3: DVD034 (bispecific antibody, human IgG1, kappa)
heavy: not shown
light: DIQMTQSPSSVSASVGDRVTITCRASQGISSWLAWYQQKPGKAPNLLIYEASSLQSGVPSRFGGSGSGTDFTLTISSLQPEDFATYYCQQANGFPWTFGQGTKVEIKRTVAAPDVVMTQSPLSLPVTPGEPASISCRSSQSLLHSNGFNYVDWYLQKPGQSPHLLIYFGSYRASGVPDRFSGSGSGTDFTLKISRVEAEDVGVYYCMQALQTPPWTFGQGTKVEIRRTVAAPSVFIFPPSDEQLKSGTASVVCLLNNFYPREAKVQWKVDNALQSGNSQESVTEQDSKDSTYSLSSTLTLSKADYEKHKVYACEVTHQGLSSPVTKSFNRGEC
notes: DVD-Ig; outer AB012 (HGF), inner AB005 (RON); also called HGF and RON DVD-Ig
Consider B3, for which, in the test with RON, the “FACS Geometric Mean C-terminal” value worked out at 0.39.

B4: DVD471 (bispecific antibody, human IgG1, kappa, L234A L235A)
heavy: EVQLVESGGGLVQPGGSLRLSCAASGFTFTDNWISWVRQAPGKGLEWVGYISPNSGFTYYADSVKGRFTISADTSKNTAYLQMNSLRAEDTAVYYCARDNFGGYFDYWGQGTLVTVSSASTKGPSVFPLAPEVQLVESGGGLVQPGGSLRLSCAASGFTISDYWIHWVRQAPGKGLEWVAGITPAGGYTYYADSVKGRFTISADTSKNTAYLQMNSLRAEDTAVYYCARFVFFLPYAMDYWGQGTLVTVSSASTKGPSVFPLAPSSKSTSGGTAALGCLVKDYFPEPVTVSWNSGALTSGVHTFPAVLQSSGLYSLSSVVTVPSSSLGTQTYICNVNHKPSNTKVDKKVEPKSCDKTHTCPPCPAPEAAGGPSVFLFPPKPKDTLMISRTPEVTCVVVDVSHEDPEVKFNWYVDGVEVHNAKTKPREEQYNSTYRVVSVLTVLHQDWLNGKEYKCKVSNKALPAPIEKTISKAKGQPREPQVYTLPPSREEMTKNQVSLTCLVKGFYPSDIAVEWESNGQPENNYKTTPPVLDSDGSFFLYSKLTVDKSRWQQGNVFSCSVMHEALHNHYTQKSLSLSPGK
light: DIQMTQSPSSLSASVGDRVTITCRASQDVSTAVAWYQQKPGKAPKLLIYSASFLYSGVPSRFSGSGSGTDFTLTISSLQPEDFATTYYCQQSYTGTVTFGQGTKVEIKRTVAAPSVFIFPPDIQMTQSPSSLSASVGDRVTITCRASQDVSTAVAWYQQKPGKAPKLLIYSASFLYSGVPSRFSGSGSGTDFTLTISSLQPEDFATYYCQQSYTTPPTFGQGTKVEIKRTVAAPSVFIFPPSDEQLKSGTASVVCLLNNFYPREAKVQWKVDNALQSGNSQESVTEQDSKDSTYSLSSTLTLSKADYEKHKVYACEVTHQGLSSPVTKSFNRGEC
notes: DVD-Ig; also called DLL4 and VEGF DVD-Ig, HC linker long, LC linker long
Turning to B4, the EC50 with DLL4 [3] was 1.13 nM.

B5: DVD498 (bispecific antibody, human IgG1, kappa)
heavy: not shown
light: DIQMTQSPSSLSASVGDRVTITCRASQVIRRSLAWYQQKPGKAPKLLIYAASNLASGVPSRFSGSGSGTDFTLTISSLQPEDFATYYCQQSNTSPLTFGQGTKVEIKRTVAAPSVFIFPPDIQMTQSSSYLSVSLGGRVTITCKASDHINNWLAWYQQKPGNAPRLLISGATSLETGVPSRFSGSGSGKDYTLSITSLQTEDVATYYCQQYWSIPLTFGAGTKLELKRTVAAPSVFIFPPSDEQLKSGTASVVCLLNNFYPREAKVQWKVDNALQSGNSQESVTEQDSKDSTYSLSSTLTLSKADYEKHKVYACEVTHQGLSSPVTKSFNRGEC
notes: DVD-Ig; N-term; AB071 (VEGF), C-term; AB072 (DLL4); HC linker long, LC linker long; also called DVD-Ig DVD498; DVD498H/DVD498L
The molecule B5 had an EC50 in test [4] of 30.6 nM.

B6: AB008 (anti-CD-22 antibody, used as control) (antibody, human IgG1, kappa, V domains shown)
VH: QVQLVQSGAEVKKPGSSVKVSCKASGYTFTSYWLHWVRQAPGQGLEWIGYINPRNDYTEYNQNFKDKATITADESTNTAYMELSSLRSEDTAFYFCARRDITTFYWGQGTTVTVSS
VL: DIQLTQSPSSLSASVGDRVTMSCKSSQSVLYSANHKNYLAWYQQKPGKAPKLLIYWASTRESGVPSRFSGSGSGTDFTFTISSLQPEDIATYYCHQYLSSWTFGGGTKLEIKR
Regarding B6, the “Inhibition Of ErbB3 Phosphorylation (% Inhibition At 60 nM Ab/DVD)” value in the test with ErbB3 on A431 cells [5] is 0%. Further, the “Inhibition Of EGFR Phosphorylation (% Inhibition At 60 nM Ab/DVD)” value with EGFR on A431 cells [6] stood at 4%. Moreover, the “Inhibition Of A431 Proliferation (% Inhibition At 21.6 nM Ab/DVD)” value with ErbB3 on A431 cells [7] and with EGFR on A431 cells [8] was 6% each time.

B7: DVD496 (bispecific antibody, human IgG1, kappa)
heavy: not shown
light: DIQMTQSPSSLSASVGDRVTITCRASQDVSTAVAWYQQKPGKAPKLLIYSASFLYSGVPSRFSGSGSGTDFTLTISSLQPEDFATYYCQQSYTTPPTFGQGTKVEIKRTVAAPSVFIFPPDIQMTQSSSYLSVSLGGRVTITCKASDHINNWLAWYQQKPGNAPRLLISGATSLETGVPSRFSGSGSGKDYTLSITSLQTEDVATYYCQQYWSIPLTFGAGTKLELKRTVAAPSVFIFPPSDEQLKSGTASVVCLLNNFYPREAKVQWKVDNALQSGNSQESVTEQDSKDSTYSLSSTLTLSKADYEKHKVYACEVTHQGLSSPVTKSFNRGEC
notes: DVD-Ig; N-term; AB070 (VEGF), C-term; AB072 (DLL4); HC linker long, LC linker long; also called DVD-Ig DVD496; DVD496H/DVD496L
With B7, in [4], the EC50 is 108 nM.

B8: DVD485 (bispecific antibody, human IgG1, kappa)
heavy: not shown
light: DIQMTQSPSSLSASVGDRVTITCRASQDVSTAVAWYQQKPGKAPKLLIYSASFLYSGVPSRFSGSGSGTDFTLTISSLQPEDFATTYYCQQSYTGTVTFGQGTKVEIKRTVAAPSVFIFPPDIQMTQSPSSLSASVGDRVTITCRASQVIRRSLAWYQQKPGKAPKLLIYAASNLASGVPSRFSGSGSGTDFTLTISSLQPEDFATYYCQQSNTSPLTFGQGTKVEIKRTVAAPSVFIFPPSDEQLKSGTASVVCLLNNFYPREAKVQWKVDNALQSGNSQESVTEQDSKDSTYSLSSTLTLSKADYEKHKVYACEVTHQGLSSPVTKSFNRGEC
notes: DVD-Ig; outer AB015 (DLL4), inner AB071 (VEGF); also called DLL4 and VEGF DVD-Ig, HC linker short, LC linker long
For B8, the concentration for a half-maximal effect (EC50) in the test with DLL4 [3] was determined as 0.89 nM.

B9: DVD043 (VEGF (seq. 1) N-terminal / DLL4 (seq. 1) C-terminal DVD-Ig) (bispecific antibody, human IgG1, kappa)
heavy: not shown
light: DIQMTQSPSSLSASVGDRVTITCSASQDISNYLNWYQQKPGKAPKVLIYFTSSLHSGVPSRFSGSGSGTDFTLTISSLQPEDFATYYCQQYSTVPWTFGQGTKVEIKRTVAAPDIQMTQSPSSLSASVGDRVTITCRASQDVSTAVAWYQQKPGKAPKLLIYSASFLYSGVPSRFSGSGSGTDFTLTISSLQPEDFATTYYCQQSYTGTVTFGQGTKVEIKRTVAAPSVFIFPPSDEQLKSGTASVVCLLNNFYPREAKVQWKVDNALQSGNSQESVTEQDSKDSTYSLSSTLTLSKADYEKHKVYACEVTHQGLSSPVTKSFNRGEC
notes: also called DVD043H/DVD043L
With B9, the half-maximal inhibitory concentration (IC50) in [1] came out at 13.1 nM.

B10: DVD043 (bispecific antibody, human IgG1, kappa)
heavy: not shown
light: DIQMTQSPSSLSASVGDRVTITCSASQDISNYLNWYQQKPGKAPKVLIYFTSSLHSGVPSRFSGSGSGTDFTLTISSLQPEDFATYYCQQYSTVPWTFGQGTKVEIKRTVAAPDIQMTQSPSSLSASVGDRVTITCRASQDVSTAVAWYQQKPGKAPKLLIYSASFLYSGVPSRFSGSGSGTDFTLTISSLQPEDFATTYYCQQSYTGTVTFGQGTKVEIKRTVAAPSVFIFPPSDEQLKSGTASVVCLLNNFYPREAKVQWKVDNALQSGNSQESVTEQDSKDSTYSLSSTLTLSKADYEKHKVYACEVTHQGLSSPVTKSFNRGEC
notes: DVD-Ig; also called VEGF and DLL4 DVD-Ig
Take B10: in the test with DLL4 [2], the “FACS Geometric Mean C-terminal” value amounted to 68.4.

B11: DVD047 (bispecific antibody, human IgG1, kappa)
heavy: not shown
light: DIQMTQSPSSLSASVGDRVTITCSASQDISNYLNWYQQKPGKAPKVLIYFTSSLHSGVPSRFSGSGSGTDFTLTISSLQPEDFATYYCQQYSTVPWTFGQGTKVEIKRTVAAPDVVMTQSPLSLPVTPGEPASISCRSSQSLLHSNGFNYVDWYLQKPGQSPHLLIYFGSYRASGVPDRFSGSGSGTDFTLKISRVEAEDVGVYYCMQALQTPPWTFGQGTKVEIRRTVAAPSVFIFPPSDEQLKSGTASVVCLLNNFYPREAKVQWKVDNALQSGNSQESVTEQDSKDSTYSLSSTLTLSKADYEKHKVYACEVTHQGLSSPVTKSFNRGEC
notes: DVD-Ig; also called VEGF and RON DVD-Ig
Turning to B11, the “FACS Geometric Mean C-terminal” value with RON came to 0.51.

Usually IC50 stands for the concentration that gives 50% inhibition. A word on the EC50: it is the concentration that produces a half-maximal response. Higher therefore signals lower potency in that assay.
